The target of assay [1] is tissue-type plasminogen activator (tPA) (human) (UniProt P00750). Kind of assay: cell-based or functional assay.
Assay [2] addresses human coagulation factor VIII isolated from healthy volunteers (Aafact) (human) (UniProt P00451). Kind of assay: ELISA, therapeutic coated, tPA concentration series, one-site binding fit.

human coagulation factor VIII isolated from healthy volunteers (Aafact) (human), sequence (P00451 20-2351): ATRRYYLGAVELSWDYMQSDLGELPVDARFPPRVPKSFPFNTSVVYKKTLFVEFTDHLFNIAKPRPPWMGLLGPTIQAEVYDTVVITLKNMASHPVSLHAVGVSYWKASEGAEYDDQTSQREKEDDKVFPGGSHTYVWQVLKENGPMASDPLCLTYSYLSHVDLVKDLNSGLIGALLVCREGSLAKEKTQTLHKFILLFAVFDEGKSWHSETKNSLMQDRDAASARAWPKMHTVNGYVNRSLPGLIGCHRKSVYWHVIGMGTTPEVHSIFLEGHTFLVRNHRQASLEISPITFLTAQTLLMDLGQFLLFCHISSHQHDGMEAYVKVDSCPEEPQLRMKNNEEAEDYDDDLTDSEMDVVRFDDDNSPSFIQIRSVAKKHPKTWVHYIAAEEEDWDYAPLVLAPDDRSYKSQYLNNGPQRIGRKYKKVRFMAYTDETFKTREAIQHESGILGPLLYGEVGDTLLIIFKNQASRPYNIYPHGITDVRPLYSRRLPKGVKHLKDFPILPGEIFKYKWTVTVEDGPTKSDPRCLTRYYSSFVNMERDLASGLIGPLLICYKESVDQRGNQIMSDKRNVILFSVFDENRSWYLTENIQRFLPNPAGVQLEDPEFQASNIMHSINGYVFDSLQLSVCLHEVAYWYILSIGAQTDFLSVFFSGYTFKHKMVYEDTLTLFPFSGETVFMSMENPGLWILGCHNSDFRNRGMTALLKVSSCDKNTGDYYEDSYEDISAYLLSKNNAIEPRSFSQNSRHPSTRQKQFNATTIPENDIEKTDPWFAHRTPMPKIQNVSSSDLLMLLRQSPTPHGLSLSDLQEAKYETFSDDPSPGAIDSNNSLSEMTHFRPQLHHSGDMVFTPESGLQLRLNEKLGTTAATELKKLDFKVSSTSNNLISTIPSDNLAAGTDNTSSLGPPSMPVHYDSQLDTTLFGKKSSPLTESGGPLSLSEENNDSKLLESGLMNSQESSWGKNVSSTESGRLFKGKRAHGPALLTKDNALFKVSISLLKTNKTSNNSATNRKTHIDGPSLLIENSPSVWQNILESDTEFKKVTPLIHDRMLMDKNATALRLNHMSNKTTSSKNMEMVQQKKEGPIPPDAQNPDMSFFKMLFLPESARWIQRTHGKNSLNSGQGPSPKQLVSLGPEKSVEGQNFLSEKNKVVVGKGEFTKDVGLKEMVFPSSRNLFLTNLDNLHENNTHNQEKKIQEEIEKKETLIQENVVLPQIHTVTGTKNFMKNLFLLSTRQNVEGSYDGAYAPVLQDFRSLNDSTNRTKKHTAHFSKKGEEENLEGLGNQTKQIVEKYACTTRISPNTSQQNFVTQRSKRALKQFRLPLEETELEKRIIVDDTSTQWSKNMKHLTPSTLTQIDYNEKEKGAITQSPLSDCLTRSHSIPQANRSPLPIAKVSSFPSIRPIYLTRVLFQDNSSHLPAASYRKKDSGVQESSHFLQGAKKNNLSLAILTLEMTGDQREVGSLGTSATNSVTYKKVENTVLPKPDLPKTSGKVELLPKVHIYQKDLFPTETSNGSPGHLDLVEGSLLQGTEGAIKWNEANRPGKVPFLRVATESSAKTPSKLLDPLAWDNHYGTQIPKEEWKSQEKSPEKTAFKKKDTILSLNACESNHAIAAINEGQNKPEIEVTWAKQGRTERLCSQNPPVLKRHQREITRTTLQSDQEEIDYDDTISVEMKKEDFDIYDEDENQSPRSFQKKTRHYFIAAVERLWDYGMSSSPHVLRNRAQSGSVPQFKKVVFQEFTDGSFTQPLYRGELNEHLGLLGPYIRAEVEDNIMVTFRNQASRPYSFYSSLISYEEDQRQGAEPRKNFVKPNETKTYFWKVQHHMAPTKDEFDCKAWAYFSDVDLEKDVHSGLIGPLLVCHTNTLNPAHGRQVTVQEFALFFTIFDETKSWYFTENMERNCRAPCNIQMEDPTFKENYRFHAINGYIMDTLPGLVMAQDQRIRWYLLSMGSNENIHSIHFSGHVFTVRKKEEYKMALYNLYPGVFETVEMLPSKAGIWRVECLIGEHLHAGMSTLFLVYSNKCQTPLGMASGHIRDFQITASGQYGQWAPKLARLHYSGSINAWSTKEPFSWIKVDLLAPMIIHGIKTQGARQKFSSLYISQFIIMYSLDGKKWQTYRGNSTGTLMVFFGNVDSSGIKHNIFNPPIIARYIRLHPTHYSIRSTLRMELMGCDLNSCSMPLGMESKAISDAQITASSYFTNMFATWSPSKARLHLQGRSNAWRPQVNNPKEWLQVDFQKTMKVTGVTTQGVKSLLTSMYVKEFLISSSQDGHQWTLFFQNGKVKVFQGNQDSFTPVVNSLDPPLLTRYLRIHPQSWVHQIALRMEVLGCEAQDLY

In assay [1], “human-murine chimeric monoclonal antibody (Remicade-infliximab)” displayed a tPA activation, Max. Activation (%) of 0%.
The same measure, in the same setting: the same measure for “human glucagon (Glucagen) (from UniProt P01275 53-81) (peptide)”: 11.2%; for “Epoietin Alfa (from UniProt P01588 28-192) (ligand)”: 0%.
On to “tissue-type plasminogen activator (tPA) (from UniProt P00750 36-562) (enzyme)”, for which, in assay [2], the Bmax (OD450 nm) worked out at 0.54 OD450 nm and the Kd is 230 nM.
As to “human coagulation factor VIII isolated from healthy volunteers (Aafact) (from UniProt P00451 20-2351)”, in assay [1], the tPA activation, Max. Activation (%) came out at 4.22%.
On the same count and under the same terms, the same measure for “rapid acting human insulin analogue (NovoRapid Flexpen) (from UniProt P01308 90-110; P01308 25-54) (ligand)”: 70.9%; for Etanercept (Enbrel) (Fc fusion): 0%.

A word on the Kd: it is the free concentration of one partner at which half of the binding sites on the other are occupied at equilibrium, for simple one-to-one binding. A low value points to a tighter complex.

The values are drawn from US20080207488A1, “Method for Detecting Peptides Comprising a Cross-B Structure” (priority 2005, published 2008).
